Laboratory results reported in FireProtDB (doi:10.1126/science.aai7825).

Conditions: Escherichia coli (strain K12); pH 7.5; Thermal; Intensity; HEPES 20mM; transition: 2; whole UniProt chain shown

| Protein | Tm |
| --- | --- |
| Ribosome-recycling factor wild type, P0A805 (protein) MISDIRKDAEVRMDKCVEAFKTQISKIRTGRASPSLLDGIVVEYYGTPTPLRQLASVTVEDSRTLKINVFDRSMSPAVEKAIMASDLGLNPNSAGSDIRVPLPPLTEERRKDLTKIVRGEAEQARVAVRNVRRDANDKVKALLKDKEISEDDDRRSQDDVQKLTDAAIKKIEAALADKEAELMQF | 44.4 °C |
| Ribosomal protein uL3 glutamine methyltransferase wild type, P39199 (protein) MDKIFVDEAVNELQTIQDMLRWSVSRFSAANIWYGHGTDNPWDEAVQLVLPSLYLPLDIPEDMRTARLTSSEKHRIVERVIRRVNERIPVAYLTNKAWFCGHEFYVDERVLVPRSPIGELINNKFAGLISKQPQHILDMCTGSGCIAIACAYAFPDAEVDAVDISPDALAVAEQNIEEHGLIHNVIPIRSDLFRDLPKVQYDLIVTNPPYVDAEDMSDLPNEYRHEPELGLASGTDGLKLTRRILGNAADYLADDGVLICEVGNSMVHLMEQYPDVPFTWLEFDNGGDGVFMLTKEQLIAAREHFAIYKD | 45.5 °C |
| Homoserine O-succinyltransferase wild type, P07623 (protein) MPIRVPDELPAVNFLREENVFVMTTSRASGQEIRPLKVLILNLMPKKIETENQFLRLLSNSPLQVDIQLLRIDSRESRNTPAEHLNNFYCNFEDIQDQNFDGLIVTGAPLGLVEFNDVAYWPQIKQVLEWSKDHVTSTLFVCWAVQAALNILYGIPKQTRTEKLSGVYEHHILHPHALLTRGFDDSFLAPHSRYADFPAALIRDYTDLEILAETEEGDAYLFASKDKRIAFVTGHPEYDAQTLAQEFFRDVEAGLDPDVPYNYFPHNDPQNTPRASWRSHGNLLFTNWLNYYVYQITPYDLRHMNPTLD | 45.7 °C |
| Pyruvate formate-lyase 1-activating enzyme wild type, P0A9N4 (protein) MSVIGRIHSFESCGTVDGPGIRFITFFQGCLMRCLYCHNRDTWDTHGGKEVTVEDLMKEVVTYRHFMNASGGGVTASGGEAILQAEFVRDWFRACKKEGIHTCLDTNGFVRRYDPVIDELLEVTDLVMLDLKQMNDEIHQNLVGVSNHRTLEFAKYLANKNVKVWIRYVVVPGWSDDDDSAHRLGEFTRDMGNVEKIELLPYHELGKHKWVAMGEEYKLDGVKPPKKETMERVKGILEQYGHKVMF | 43.4 °C |
| HTH-type transcriptional repressor PurR wild type, P0ACP7 (protein) MATIKDVAKRANVSTTTVSHVINKTRFVAEETRNAVWAAIKELHYSPSAVARSLKVNHTKSIGLLATSSEAAYFAEIIEAVEKNCFQKGYTLILGNAWNNLEKQRAYLSMMAQKRVDGLLVMCSEYPEPLLAMLEEYRHIPMVVMDWGEAKADFTDAVIDNAFEGGYMAGRYLIERGHREIGVIPGPLERNTGAGRLAGFMKAMEEAMIKVPESWIVQGDFEPESGYRAMQQILSQPHRPTAVFCGGDIMAMGALCAADEMGLRVPQDVSLIGYDNVRNARYFTPALTTIHQPKDSLGETAFNMLLDRIVNKREEPQSIEVHPRLIERRSVADGPFRDYRR | 45.6 °C |
| Transcriptional regulatory protein PhoP wild type, P23836 (protein) MRVLVVEDNALLRHHLKVQIQDAGHQVDDAEDAKEADYYLNEHIPDIAIVDLGLPDEDGLSLIRRWRSNDVSLPILVLTARESWQDKVEVLSAGADDYVTKPFHIEEVMARMQALMRRNSGLASQVISLPPFQVDLSRRELSINDEVIKLTAFEYTIMETLIRNNGKVVSKDSLMLQLYPDAELRESHTIDVLMGRLRKKIQAQYPQEVITTVRGQGYLFELR | 42.6 °C |
| tRNA pseudouridine synthase D wild type, Q57261 (protein) MIEFDNLTYLHGKPQGTGLLKANPEDFVVVEDLGFEPDGEGEHILVRILKNGCNTRFVADALAKFLKIHAREVSFAGQKDKHAVTEQWLCARVPGKEMPDLSAFQLEGCQVLEYARHKRKLRLGALKGNAFTLVLREVSNRDDVEQRLIDICVKGVPNYFGAQRFGIGGSNLQGAQRWAQTNTPVRDRNKRSFWLSAARSALFNQIVAERLKKADVNQVVDGDALQLAGRGSWFVATTEELAELQRRVNDKELMITAALPGSGEWGTQREALAFEQAAVAAETELQALLVREKVEAARRAMLLYPQQLSWNWWDDVTVEIRFWLPAGSFATSVVRELINTTGDYAHIAE | 43.8 °C |
| NH(3)-dependent NAD(+) synthetase wild type, P18843 (protein) MTLQQQIIKALGAKPQINAEEEIRRSVDFLKSYLQTYPFIKSLVLGISGGQDSTLAGKLCQMAINELRLETGNESLQFIAVRLPYGVQADEQDCQDAIAFIQPDRVLTVNIKGAVLASEQALREAGIELSDFVRGNEKARERMKAQYSIAGMTSGVVVGTDHAAEAITGFFTKYGDGGTDINPLYRLNKRQGKQLLAALACPEHLYKKAPTADLEDDRPSLPDEVALGVTYDNIDDYLEGKNVPQQVARTIENWYLKTEHKRRPPITVFDDFWKK | 45.1 °C |
| Multidrug efflux pump subunit AcrA wild type, P0AE06 (protein) MNKNRGFTPLAVVLMLSGSLALTGCDDKQAQQGGQQMPAVGVVTVKTEPLQITTELPGRTSAYRIAEVRPQVSGIILKRNFKEGSDIEAGVSLYQIDPATYQATYDSAKGDLAKAQAAANIAQLTVNRYQKLLGTQYISKQEYDQALADAQQANAAVTAAKAAVETARINLAYTKVTSPISGRIGKSNVTEGALVQNGQATALATVQQLDPIYVDVTQSSNDFLRLKQELANGTLKQENGKAKVSLITSDGIKFPQDGTLEFSDVTVDQTTGSITLRAIFPNPDHTLLPGMFVRARLEEGLNPNAILVPQQGVTRTPRGDATVLVVGADDKVETRPIVASQAIGDKWLVTEGLKAGDRVVISGLQKVRPGVQVKAQEVTADNNQQAASGAQPEQSKS | 45.7 °C |
